According to US20240352156A1 (BIOGRAPH 55, published 2024):

Assays:
[1] = target: T1, CD38 (antigen in solution, Octet assays) (human, UniProt P28907 43-300, limits assumed); test: BLI (OctetRed96), antibody on anti-hIgG Fc capture sensor
T1 construct: also called Cluster of Differentiation 38; ADPRC1

[2] = target: T2, CD38 on cells (CD38-transfected HEK293, Daudi, REH) (human, UniProt P28907 1-300); test: flow cytometry on CD38-transfected HEK293 cells, MFI against test article concentration
T2 construct: whole, on cells; also called HEK293-CD38

[3] = target: T3, CD19 (antigen in solution, Octet assays) (human, UniProt P15391 20-291, limits assumed); test: BLI (OctetRed96), antibody on anti-hIgG Fc capture sensor
T3 construct: also called Cluster of Differentiation 19; B4
T3 sequence (looked up): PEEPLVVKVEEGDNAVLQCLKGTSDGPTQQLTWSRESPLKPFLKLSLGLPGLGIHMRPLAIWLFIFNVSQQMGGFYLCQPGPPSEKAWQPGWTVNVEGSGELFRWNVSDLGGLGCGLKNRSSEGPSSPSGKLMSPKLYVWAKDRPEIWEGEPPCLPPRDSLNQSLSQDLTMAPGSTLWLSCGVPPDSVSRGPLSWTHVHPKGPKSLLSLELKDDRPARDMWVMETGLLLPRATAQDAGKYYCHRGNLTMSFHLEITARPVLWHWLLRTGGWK

B1: 851A = anti-CD19 3C10 (antibody, V domains shown)
VH: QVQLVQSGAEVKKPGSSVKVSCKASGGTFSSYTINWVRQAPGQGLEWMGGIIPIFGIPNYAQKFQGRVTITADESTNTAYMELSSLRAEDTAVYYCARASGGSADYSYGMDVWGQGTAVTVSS
VL: DIQMTQSPSSLSASVGDRVTITCRASQGISSWLAWYQQKPEKAPKSLIYAASSLQSGVPSRFSGSGSGTDFTLTISSLQPEDFATYYCQQYKRYPYTFGQGTKLEIKR
notes: captured by anti-human IgG Fc
Question: What does the source list for B1?
Answer: binding result [1]: no binding (tested: antigen dilutions starting at 300 nM); binding result [2]: no binding (tested: 133 nM)

B2: 851C = anti-CD38 003 heavy chain & anti-CD19 3C10 light chain (antibody, V domains shown)
VH: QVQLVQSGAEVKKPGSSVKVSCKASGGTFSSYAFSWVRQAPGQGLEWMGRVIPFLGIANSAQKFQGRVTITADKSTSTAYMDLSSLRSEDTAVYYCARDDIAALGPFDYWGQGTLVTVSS
VL: B1 VL
Question: Does B2 bind [3]?
Answer: no binding (tested: antigen dilutions starting at 300 nM)
